The subject of data set [1] is HaCaT cells. In words: CDC assay on HaCaT cells with complement. The format is cell-based, human. The settings on record: 33 nM (5 μg/ml), vs isotype antibody. The procedure:
γc expressing human keratinocyte HaCaT cell line was utilized as the target cells in ADCC and CDC assays. To determine the ADCC activity, HaCaT cell was pre-binded with anti-γc antibodies before co-culture with human PBMC. To determine the CDC activity, HaCaT cell was pre-binded with anti-γc antibodies before incubation with low-endotoxin complement proteins extracted from guinea pig. ADCC was determined by percentage of PI+ HaCaT cells in flow cytometry analysis while CDC was measured by the WST-8 proliferative assay of HaCaT cells in a 96-well plate (FIG. 22A).

The subject of data set [2] is IL-15 induced p-STAT5. Nature of the data set: Suppression of p-STAT in PBMC, IL-15. The format is cell-based, human. The following applies: antibody 10 μg/ml, compared to isotype control. The protocol:
Given numbers refer to the percentage of inhibition compared to isotype control stimulated with respective γc cytokine. Antibody concentration is 10 μg/ml.

Data set [3] concerns Ramos B cells. In words: WST-8 proliferation assay, IL-4/IL-21 rescue of anti-IgM induced cell death. The following applies: humanized antibodies; 33 nM (5 μg/ml); vs ritlecitinib. The format is cell-based, human. The protocol: The effects of anti-γc antibodies in blocking IL-4 and IL-21 rescues of Ramos cell death after anti-IgM induced hyperactivation were investigated by WST-8 proliferation assay. In brief, Ramos cells (50000 cells in 100 l) were seeded into 96-well plate and stabilized at 37° C. for an hour. Cells were pretreated in anti-γc antibodies or ritlecitinib for an hour, followed by incubation of IL-4 (10 ng/ml) or IL-21 (10 ng/ml) and anti-IgM (2 ug/ml, #109-006-129, Jackson ImmunoResearch). Aft er 48 hours, 10 μl WST-8 reagent (ab228554, Abcam) was added to each well and incubated for 4 hours.
WST-8 could be reduced by cellular dehydrogenases to an orange formazan product, which the amount of formazan produced is directly proportional to the number of living Ramos cells. Optical density (OD) of each well was measured by absorbance at 450 nm using Varioskan LUX Multimode Microplate Reader (ThermoFisher Scientific).

Data set [4] deals with common marmoset γc. In words: BLI binding kinetics to common marmoset γc protein. On the set-up: species or system common marmoset (Callithrix jacchus). The protocol: (§1) Full-length humanized antibodies were evaluated by BLI to access their binding kinetics. The binding activities of full-length anti-γc antibody were investigated using γc proteins (extracellular domain) from human and common marmoset (either purchased or in-house generated). Briefly, anti-γc antibody (20 μg/mL) was immobilized on biosensors via interactions with anti-human IgG; serially diluted γc proteins (at a concentration of 158.7 nM, 79.4 Nm, 39.7n M and 0 nM respectively) were subsequently added following standard operation protocols of the Octet ReD96 system to plot out the association and dissociation curve. Irrelevant antibody (SM03, anti-human CD22 chimeric IgG1 antibody, SinoMab BioScience Limited) was used as the control reference. The KD is within the picomolar-single digit nanomolar range.
Chain of common marmoset γc (as listed by the source): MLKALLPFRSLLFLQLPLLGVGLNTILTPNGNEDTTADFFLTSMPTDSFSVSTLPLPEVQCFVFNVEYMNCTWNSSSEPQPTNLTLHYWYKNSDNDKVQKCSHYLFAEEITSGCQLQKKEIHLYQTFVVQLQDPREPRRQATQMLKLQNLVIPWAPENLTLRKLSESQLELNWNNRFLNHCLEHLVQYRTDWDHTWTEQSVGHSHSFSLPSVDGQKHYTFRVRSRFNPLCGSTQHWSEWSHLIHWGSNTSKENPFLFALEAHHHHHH
In general terms: In BLI a coated tip is dipped into the sample, and binding shifts an interference pattern.

The test system of data set [5] is γc proteins from chimpanzee. In words: ELISA binding of full-length antibodies to chimpanzee γc. On the set-up: species or system chimpanzee (Pan troglodytes). The settings on record: humanized antibodies with back-mutation. The procedure:
Selected clones of full-length antibodies were evaluated by ELISA to access the binding specificity. The binding activities of full-length anti-γc antibody were investigated using γc proteins (extracellular domain) from human (SEQ ID NO: 205-206), cynomolgus (Sequence ID: XP_005593949.1, SEQ ID NO: 207-208) and chimpanzee (Sequence ID: XP_008971810.1, SEQ ID NO: 209-210) either purchased from Sino Biological or in-house generated.
Humanized antibodies with back-mutation (hSM-05A and hSM-05E) were tested in the following assays. Binding affinities were investigated in the ELISA assays.
A general note: In an ELISA, binding on a coated surface is turned into a signal by an enzyme label.

The target in data set [6] is T1, human γc proteins (Homo sapiens, UniProt P31785).
T1 construct: extracellular domain of human γc protein (amino acids: 1-262); host or cells: Expi-CHO (e.g.)
T1 sequence (P31785 23-262): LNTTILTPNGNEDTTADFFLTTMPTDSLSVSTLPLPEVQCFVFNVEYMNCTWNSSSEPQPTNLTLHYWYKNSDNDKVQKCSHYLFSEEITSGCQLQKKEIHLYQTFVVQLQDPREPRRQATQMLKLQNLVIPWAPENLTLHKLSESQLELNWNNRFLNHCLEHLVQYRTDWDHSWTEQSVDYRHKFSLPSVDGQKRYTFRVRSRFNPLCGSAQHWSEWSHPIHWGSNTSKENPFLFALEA
Nature of the data set: BLI binding kinetics to human γc protein. The protocol: as §1

The subject of data set [7] is granzyme and IFNγ secretion. Nature of the data set: Secretion of granzymes and IFNγ from PBMC culture, ELISA. The format is cell-based, human. The settings on record: IL-2 or IL-15, 33 nM, humanized antibodies. The protocol:
Activation of T and NK cells in the PBMC culture could be studied by granzyme and IFNγ secretion [Carlin et al., Blood., 2005; 106 (12): 3874-9; Grossman et al., Blood., 2004; 104 (9): 2840-8; Keppel et al., J Immunol., 2015; 194 (4): 1954-1962; Tamang et al., Cytokine., 2006; 36 (3-4): 148-59]. Similar results are obtained in-house that IL-2 and IL-15 but not IL-21 could trigger secretion of granzyme A and IFNγ in PBMC culture (FIG. 15A-B).
Antibodies or ritlecitinib were added into the PBMC culture to investigate their inhibitory effects in the presence of IL-2 or IL-15 treatment.
Releases of cytolytic agents from PBMC culture were further evaluated by ELISA assays.

For data set [8], the system named is cynomolgus γc. In words: BLI binding kinetics to cynomolgus γc protein. On the set-up: species or system cynomolgus (Macaca fascicularis).
Chain of cynomolgus γc (as listed by the source): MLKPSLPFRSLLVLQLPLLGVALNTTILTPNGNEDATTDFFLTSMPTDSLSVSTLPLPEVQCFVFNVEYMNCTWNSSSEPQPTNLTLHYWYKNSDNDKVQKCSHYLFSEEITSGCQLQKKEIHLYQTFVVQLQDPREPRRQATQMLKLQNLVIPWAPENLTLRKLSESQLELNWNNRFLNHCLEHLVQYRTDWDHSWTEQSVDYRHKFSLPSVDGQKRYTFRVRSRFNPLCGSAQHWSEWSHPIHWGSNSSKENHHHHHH

Chain of γc proteins from chimpanzee (as listed by the source): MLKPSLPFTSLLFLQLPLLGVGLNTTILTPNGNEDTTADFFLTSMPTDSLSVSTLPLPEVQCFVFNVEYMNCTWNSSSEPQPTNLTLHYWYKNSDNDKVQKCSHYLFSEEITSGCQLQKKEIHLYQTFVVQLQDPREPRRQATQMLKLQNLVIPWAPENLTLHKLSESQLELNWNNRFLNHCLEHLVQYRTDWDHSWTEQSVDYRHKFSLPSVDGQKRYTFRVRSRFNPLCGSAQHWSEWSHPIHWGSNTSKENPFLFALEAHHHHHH

B1: hSM-05A: full-length humanized anti-γc antibody derived from SM-05A by framework patching (antibody, V domains shown)
VH: QVQLVQSGAEVLKPGASVKVSCKASGYTFTEYTMHWVKQARGQRLEWIGGIDPYNGGATYNQRFKGKATLTTDTSTSTAYMELRNLRSDDTAVYYCARRRLYYGNALDYWGQGTLVTVSS
VL: DIVMTQSPLSLPVTPGEQASISCRSSQSLVHSNGNTYLHWYLQKPGQSPQLLIYKVSSRFSGVPDRFSGSGSGTDFTLKISRVEAEDVGVYFCSQTTHVPFTFGSGTKLEIKR
Regarding B1, in data set [1], the CDC activity result is “could not induce any ADCC nor CDC activities”. Also, the “IL-15 induced p-STAT5, percentage of inhibition” value in data set [2] came out at 100%. The “restimulation of anti-IgM induced cell death in presence of IL-4 or IL-21 (WST-8)” value in data set [3] is given as “can restimulate anti-IgM induced cell death in a comparable level to ritlecitinib”. Moreover, the “Ka” value in data set [4] is 300000 M⁻¹ s⁻¹; in data set [6] (Experiment 1) it was 119000 M⁻¹ s⁻¹; in data set [6] (Experiment 2), 175000 M⁻¹ s⁻¹; in data set [8], 22500 M⁻¹ s⁻¹. Besides, the “Kdis” value in data set [4] stood at 0.00121 s⁻¹; in data set [6] (Experiment 1), 0.000319 s⁻¹; in data set [6] (Experiment 2) it was 0.00144 s⁻¹; in data set [8] it was 0.00683 s⁻¹. The “ELISA binding to chimpanzee γc” value in data set [5] was “retained the binding affinity and specificity”. The “inhibition of IFNγ secretion” value in data set [7] was “comparable inhibition to IFNγ secretion to ritlecitinib”.

B2: hSM-05E: full-length humanized anti-γc antibody derived from SM-05E by framework patching (antibody, V domains shown)
VH: QVQLVQSGAEVLKPGASVKVSCKASGYTFTEYTMHWVKQARGQRLEWIGGIDPNTGGVTYNQKFKGKATLTTDTSTSTAYMELRNLRSDDTAVYYCARRRRYYGYALDYWGQGTLVTVSS
VL: DIVMTQSPLSLPVTPGEQASISCRSSQSIVHSNGNTYLEWYLQKPGQSPQLLIYKVSNRFSGVPDRFSGSGSGTDFTLKISRVEAEDVGVYFCSQSTHVPFMFGSGTKLEIKR
B2: the CDC activity result in data set [1] was “could not induce any ADCC nor CDC activities”. Further, the “IL-15 induced p-STAT5, percentage of inhibition” value in data set [2] is 100%. In addition, in data set [3], the “restimulation of anti-IgM induced cell death in presence of IL-4 or IL-21 (WST-8)” value was “can restimulate anti-IgM induced cell death in a comparable level to ritlecitinib”. The “Ka” value was 333000 M⁻¹ s⁻¹ in data set [4], 119000 M⁻¹ s⁻¹ in data set [6] (Experiment 1), 327000 M⁻¹ s⁻¹ in data set [6] (Experiment 2) and 22500 M⁻¹ s⁻¹ in data set [8]. For the same molecule, the “Kdis” value is 0.00175 s⁻¹ in data set [4], 0.000573 s⁻¹ in data set [6] (Experiment 1), 0.000944 s⁻¹ in data set [6] (Experiment 2) and 0.00683 s⁻¹ in data set [8]. For the same molecule, the “ELISA binding to chimpanzee γc” value in data set [5] was “retained the binding affinity and specificity”. Further, the “inhibition of IFNγ secretion” value in data set [7] was “only offered weak suppression to two agents”. In data set [7], the “suppression of granzyme B secretion” value is listed as “only offered weak suppression to two agents”.
